Experimental data taken from US20130129767A1.

Assays:
[1] = target: decorin: CSPG (Chondroitin Sulfate Proteoglycan, Sigma) (bovine) (UniProt P21793); assay: static adhesion assay, IEs on coated CSPG
[2] = target: bovine serum albumin (bovine) (UniProt P02769); assay: static adhesion assay, IEs on coated BSA
UniProt P02769, sequence (P02769 25-607 limits assumed): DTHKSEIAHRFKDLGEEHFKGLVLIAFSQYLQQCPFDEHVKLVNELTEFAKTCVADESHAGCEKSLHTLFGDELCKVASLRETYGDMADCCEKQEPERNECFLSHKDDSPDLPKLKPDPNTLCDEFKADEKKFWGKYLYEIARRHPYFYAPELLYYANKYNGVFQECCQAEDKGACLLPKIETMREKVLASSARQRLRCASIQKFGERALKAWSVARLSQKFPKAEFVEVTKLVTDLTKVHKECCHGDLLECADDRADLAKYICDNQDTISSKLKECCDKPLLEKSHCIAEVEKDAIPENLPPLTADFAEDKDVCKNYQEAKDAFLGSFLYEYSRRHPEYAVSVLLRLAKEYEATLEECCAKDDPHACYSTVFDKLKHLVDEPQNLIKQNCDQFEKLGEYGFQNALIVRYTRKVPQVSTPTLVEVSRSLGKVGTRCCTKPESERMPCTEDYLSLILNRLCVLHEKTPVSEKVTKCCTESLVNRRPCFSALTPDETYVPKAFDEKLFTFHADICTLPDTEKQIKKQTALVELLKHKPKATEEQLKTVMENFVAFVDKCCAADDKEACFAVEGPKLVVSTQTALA

UniProt P21793, sequence (P21793 31-360 limits assumed): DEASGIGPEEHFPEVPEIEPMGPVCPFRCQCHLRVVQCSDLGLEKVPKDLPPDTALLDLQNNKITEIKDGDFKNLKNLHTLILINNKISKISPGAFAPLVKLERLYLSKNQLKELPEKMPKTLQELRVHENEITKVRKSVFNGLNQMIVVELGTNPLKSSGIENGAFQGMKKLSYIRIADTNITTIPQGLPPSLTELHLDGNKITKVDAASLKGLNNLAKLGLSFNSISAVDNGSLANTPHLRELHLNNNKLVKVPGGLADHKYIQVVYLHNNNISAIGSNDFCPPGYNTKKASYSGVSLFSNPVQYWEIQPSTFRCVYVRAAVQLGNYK

Question: How did the Bound IEs/mm^2 on CSPG [1] turn out when “surface of P. falciparum-infected erythrocytes of isolate 1MH016 (naturally infected pregnant person, Benin)” was run?
Answer: 178 IEs/mm^2

Question: And the Bound IEs/mm^2 on BSA [2]?
Answer: 2 IEs/mm^2

Question: With “surface of P. falciparum-infected erythrocytes of isolate 1MMCH (naturally infected pregnant person, Benin)” as the substance, how does the Bound IEs/mm^2 on CSPG [1] read?
Answer: 394 IEs/mm^2

Question: And the Bound IEs/mm^2 on BSA [2]?
Answer: 2.5 IEs/mm^2

Question: How did the Bound IEs/mm^2 on CSPG [1] turn out when “surface of P. falciparum-infected erythrocytes of isolate AK357 (naturally infected pregnant person, Benin)” was run?
Answer: 337 IEs/mm^2

Question: And the Bound IEs/mm^2 on BSA [2]?
Answer: 2.5 IEs/mm^2

Question: How did the Bound IEs/mm^2 on CSPG [1] turn out when “surface of P. falciparum-infected erythrocytes of isolate AK366 (naturally infected pregnant person, Benin)” was run?
Answer: 357 IEs/mm^2

Question: What about the Bound IEs/mm^2 on BSA [2] of the same substance?
Answer: 0.5 IEs/mm^2

Question: Which Bound IEs/mm^2 on CSPG [1] does the source give for “surface of P. falciparum-infected erythrocytes of isolate CM307 (naturally infected pregnant person, Benin)” here?
Answer: 623 IEs/mm^2

Question: What about the Bound IEs/mm^2 on BSA [2] of the same substance?
Answer: 1 IEs/mm^2

Question: What does the source list for “surface of P. falciparum-infected erythrocytes of isolate CM0375 (naturally infected pregnant person, Benin)”?
Answer: Bound IEs/mm^2 on CSPG [1]: 63 IEs/mm^2; Bound IEs/mm^2 on BSA [2]: 5 IEs/mm^2

Question: What does the source list for “surface of P. falciparum-infected erythrocytes of isolate CM0425 (naturally infected pregnant person, Benin)”?
Answer: Bound IEs/mm^2 on CSPG [1]: 1040 IEs/mm^2; Bound IEs/mm^2 on BSA [2]: 1 IEs/mm^2

Question: Which Bound IEs/mm^2 on CSPG [1] does the source give for “surface of P. falciparum-infected erythrocytes of isolate CM0437 (naturally infected pregnant person, Benin)” here?
Answer: 736 IEs/mm^2

Question: What about the Bound IEs/mm^2 on BSA [2] of the same substance?
Answer: 1 IEs/mm^2

Question: Which results are given for “surface of P. falciparum-infected erythrocytes of isolate CM445 (naturally infected pregnant person, Benin)”?
Answer: Bound IEs/mm^2 on CSPG [1]: 218 IEs/mm^2; Bound IEs/mm^2 on BSA [2]: 1.5 IEs/mm^2

Question: What does the source list for “surface of P. falciparum-infected erythrocytes of isolate WP0140 (naturally infected pregnant person, Benin)”?
Answer: Bound IEs/mm^2 on CSPG [1]: 244 IEs/mm^2; Bound IEs/mm^2 on BSA [2]: 2.5 IEs/mm^2

Question: “surface of P. falciparum-infected erythrocytes of isolate WP0161 (naturally infected pregnant person, Benin)” was tested. Which Bound IEs/mm^2 on CSPG [1] did it give?
Answer: 1300 IEs/mm^2

Question: What about the Bound IEs/mm^2 on BSA [2] of the same substance?
Answer: 1 IEs/mm^2

Question: How did the Bound IEs/mm^2 on CSPG [1] turn out when “surface of P. falciparum-infected erythrocytes of isolate WP0168 (naturally infected pregnant person, Benin)” was run?
Answer: 473 IEs/mm^2

Question: And the Bound IEs/mm^2 on BSA [2]?
Answer: 2 IEs/mm^2

Question: “surface of P. falciparum-infected erythrocytes of isolate WP0182 (naturally infected pregnant person, Benin)” was tested. Which Bound IEs/mm^2 on CSPG [1] did it give?
Answer: 339 IEs/mm^2

Question: What about the Bound IEs/mm^2 on BSA [2] of the same substance?
Answer: 2 IEs/mm^2

Question: What does the source list for “surface of P. falciparum-infected erythrocytes of isolate WP0200 (naturally infected pregnant person, Benin)”?
Answer: Bound IEs/mm^2 on CSPG [1]: 185 IEs/mm^2; Bound IEs/mm^2 on BSA [2]: 4.5 IEs/mm^2

Question: How did the Bound IEs/mm^2 on CSPG [1] turn out when “surface of P. falciparum-infected erythrocytes of isolate WP203 (naturally infected pregnant person, Benin)” was run?
Answer: 161 IEs/mm^2

Question: And the Bound IEs/mm^2 on BSA [2]?
Answer: 1 IEs/mm^2
